Bridges are numbered along the chain shown (N, C = ends). Where no end group is shown, it is not given here.
What follows are binders tested against human type recombinant neutral endopeptidase (hNEP, manufactured by R&D Systems, Inc., U.S.A.) (human, UniProt P08473 52-750) (assay: cell-based or functional assay).
human type recombinant neutral endopeptidase (hNEP, manufactured by R&D Systems, Inc., U.S.A.), sequence (P08473 52-750 limits assumed): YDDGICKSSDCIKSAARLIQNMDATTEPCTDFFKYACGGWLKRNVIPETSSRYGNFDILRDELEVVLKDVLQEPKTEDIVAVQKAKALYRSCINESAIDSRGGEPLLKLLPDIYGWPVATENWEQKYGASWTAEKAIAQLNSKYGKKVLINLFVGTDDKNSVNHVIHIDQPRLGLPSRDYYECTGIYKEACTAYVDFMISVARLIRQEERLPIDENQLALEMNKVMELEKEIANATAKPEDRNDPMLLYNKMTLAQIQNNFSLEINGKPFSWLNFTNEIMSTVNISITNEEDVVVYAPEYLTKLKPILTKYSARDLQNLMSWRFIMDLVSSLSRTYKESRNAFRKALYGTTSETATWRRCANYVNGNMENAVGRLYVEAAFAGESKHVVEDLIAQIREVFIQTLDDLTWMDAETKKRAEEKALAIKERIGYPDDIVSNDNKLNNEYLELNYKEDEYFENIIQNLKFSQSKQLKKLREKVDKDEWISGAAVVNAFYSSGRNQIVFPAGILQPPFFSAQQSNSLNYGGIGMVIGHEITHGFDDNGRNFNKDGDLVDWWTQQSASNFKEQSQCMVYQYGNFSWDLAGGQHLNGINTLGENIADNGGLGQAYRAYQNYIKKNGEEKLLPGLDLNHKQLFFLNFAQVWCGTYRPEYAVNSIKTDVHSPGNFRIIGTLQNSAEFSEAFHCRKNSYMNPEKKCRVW

Binder	Residual Rate (%) of the unchanged peptide after 1 hour at 37° C. with hNEP (HPLC) [%]
GLSKGCFGLKLDRIGSMSGLGC (disulfide 6-22) [Native CNP-22]	16.7
CFGLKLDRIGSMSGLGCVQQRKESKKPPAKLQPR (disulfide 1-17 (inferred)) [Chimeric CNP (B)]	83.8
RPQLKAPPKKSEKRQQVCFGLKLDRIGSMSGLGC (disulfide 18-34 (inferred)) [Chimeric CNP (A)]	84.3
